Test system: peptide library, one residue held at a place counted from the S/T acceptor
Assay: relative phosphorylation of the sub-library (ratio to the mean residue at this position); human; higher = residue favoured
Procedure, shortened: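 Relative sub-library phosphorylation is a ratio to the mean residue at the same position. Purified recombinant kinases were incubated under kinase-specific conditions with biotinylated degenerate peptide sub-libraries, each fixing one residue at one position around a central Ser/Thr, using 50 μM peptide and 50 μM ATP spiked with γ-32P-ATP for 90 min. Spots captured on streptavidin membranes were phosphorimaged and quantified by densitometry.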

Chain of CDKL1, construct: aa2-304 (Q00532 2-304, looked up): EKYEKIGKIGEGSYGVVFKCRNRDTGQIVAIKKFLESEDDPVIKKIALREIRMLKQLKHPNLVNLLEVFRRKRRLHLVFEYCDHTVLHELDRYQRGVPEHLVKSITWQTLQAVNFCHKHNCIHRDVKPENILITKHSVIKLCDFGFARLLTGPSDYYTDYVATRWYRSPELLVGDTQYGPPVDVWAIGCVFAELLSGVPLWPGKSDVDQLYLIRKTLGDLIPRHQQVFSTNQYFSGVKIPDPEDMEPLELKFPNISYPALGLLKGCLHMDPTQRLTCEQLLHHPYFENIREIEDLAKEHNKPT
Chain of CDK10, construct: Full length (Q15131 whole entry, looked up): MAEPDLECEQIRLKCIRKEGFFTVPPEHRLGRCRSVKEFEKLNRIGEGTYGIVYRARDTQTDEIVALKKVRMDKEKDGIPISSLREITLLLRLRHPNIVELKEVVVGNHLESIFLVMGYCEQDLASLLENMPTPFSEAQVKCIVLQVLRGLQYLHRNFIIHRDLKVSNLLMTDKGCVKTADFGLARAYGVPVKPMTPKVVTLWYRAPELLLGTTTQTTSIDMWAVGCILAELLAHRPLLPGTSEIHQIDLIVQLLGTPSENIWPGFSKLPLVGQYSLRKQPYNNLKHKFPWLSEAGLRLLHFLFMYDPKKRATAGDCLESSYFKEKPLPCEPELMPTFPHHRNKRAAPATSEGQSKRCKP
Chain of CAMK1, construct: Full length (Q14012 whole entry, looked up): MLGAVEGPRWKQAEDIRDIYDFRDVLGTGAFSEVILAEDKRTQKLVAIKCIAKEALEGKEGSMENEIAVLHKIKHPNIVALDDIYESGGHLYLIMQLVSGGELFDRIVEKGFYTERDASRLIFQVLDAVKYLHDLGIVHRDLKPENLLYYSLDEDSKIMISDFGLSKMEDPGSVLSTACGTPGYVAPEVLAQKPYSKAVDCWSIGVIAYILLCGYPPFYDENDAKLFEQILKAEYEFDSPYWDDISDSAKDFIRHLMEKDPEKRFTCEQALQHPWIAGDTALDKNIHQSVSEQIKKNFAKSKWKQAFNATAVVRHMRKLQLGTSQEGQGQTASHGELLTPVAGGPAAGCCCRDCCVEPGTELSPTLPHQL
Chain of CAMK2D, construct: Full length (Q13557 whole entry, looked up): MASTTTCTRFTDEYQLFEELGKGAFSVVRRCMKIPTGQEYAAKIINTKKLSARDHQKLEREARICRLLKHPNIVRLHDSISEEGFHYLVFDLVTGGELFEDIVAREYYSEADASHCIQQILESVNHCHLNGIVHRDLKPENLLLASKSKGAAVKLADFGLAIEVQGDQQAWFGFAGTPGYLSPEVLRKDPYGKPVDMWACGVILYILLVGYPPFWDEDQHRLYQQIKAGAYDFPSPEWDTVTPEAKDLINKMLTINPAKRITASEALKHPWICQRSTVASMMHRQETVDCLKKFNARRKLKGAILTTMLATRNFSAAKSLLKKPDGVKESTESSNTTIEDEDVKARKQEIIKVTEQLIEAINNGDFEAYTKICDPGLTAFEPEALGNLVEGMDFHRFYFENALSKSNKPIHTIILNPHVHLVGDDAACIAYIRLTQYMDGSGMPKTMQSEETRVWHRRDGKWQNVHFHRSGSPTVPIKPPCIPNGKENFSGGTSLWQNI

CAMK1, construct: Full length (from UniProt Q14012)
relative phosphorylation
Details	at +1	at +2	at +3	at +4	at -1	at -2	at -3	at -4	at -5
A fixed	0.669	0.817	0.709	0.598	0.804	1.02	0.635	0.826	0.346
D fixed	0.448	0.609	1.01	0.758	0.925	0.25	0.157	0.285	0.205
E fixed	0.497	0.508	0.699	0.628	0.483	0.322	0.178	0.542	0.189
F fixed	2.41	1.16	1.44	1.44	0.637	0.398	0.201	0.833	1.56
G fixed	0.623	0.554	0.911	0.897	0.773	0.607	0.218	0.614	0.402
H fixed	0.834	1.26	1.23	0.911	1.17	0.757	0.603	0.942	0.527
I fixed	0.715	1.06	0.751	1.42	0.49	0.413	0.165	1.03	1.49
K fixed	1.35	1.13	0.881	0.821	1.87	2.03	2.38	2.62	0.663
L fixed	0.767	1.16	0.962	1.82	0.965	0.54	0.188	1.12	2.97
M fixed	1.21	0.986	0.938	1.37	1.01	1.33	0.252	1.13	1.39
N fixed	1.13	1.18	1.64	1.07	2.03	0.856	0.369	0.802	0.394
P fixed	0.263	0.598	0.75	1.21	1.31	0.245	0.274	0.575	1.54
Q fixed	1.44	1	1.14	1.01	1.23	2.24	0.784	1.11	0.976
R fixed	1.96	1.42	0.961	0.679	1.59	4.18	9.87	2.11	1.8
V fixed	0.758	0.857	0.663	0.732	0.504	0.469	0.177	1.01	0.676
W fixed	0.932	1.36	1.38	0.911	0.45	0.842	0.325	0.633	0.924
Y fixed	0.99	1.34	0.935	0.716	0.753	0.488	0.227	0.827	0.946
pThr fixed	0.649	0.596	0.601	0.682	0.288	0.264	0.201	0.389	0.248
pTyr fixed	0.654	1.94	0.848	0.605	0.604	0.361	0.473	0.445	0.461

CAMK2D, construct: Full length (from UniProt Q13557)
relative phosphorylation
Details	at +1	at +2	at +3	at +4	at -1	at -2	at -3	at -4	at -5
A fixed	0.696	0.903	1.09	1.13	1.05	1.26	0.926	1.07	0.966
D fixed	0.461	3.3	1.4	1.45	0.967	0.476	0.264	0.439	0.415
E fixed	0.719	2.31	1.46	1.41	0.674	0.625	0.316	0.691	0.378
F fixed	2.39	0.604	0.852	0.726	0.811	0.914	0.887	1.22	1.38
G fixed	0.609	1.06	1.51	1.38	1.17	1.41	0.814	1.03	0.827
H fixed	0.719	1.03	1.17	0.962	1.08	0.894	1.05	0.86	0.922
I fixed	1.93	0.599	0.699	0.705	0.699	0.547	0.575	0.946	1.11
K fixed	0.476	0.569	0.669	0.688	1.21	0.858	1.68	0.967	0.794
L fixed	1.44	0.553	0.894	0.686	0.893	0.62	0.626	1.03	1.7
M fixed	1.72	0.605	0.793	0.711	1.15	1.12	0.782	1.2	1.22
N fixed	0.705	1.17	0.981	1.03	1.23	0.956	0.689	0.707	0.597
P fixed	0.278	0.626	1.09	1.81	1.55	0.45	0.909	1.02	1.12
Q fixed	1.17	0.957	1.03	1	1.16	2.51	0.973	0.875	0.708
R fixed	0.5	0.716	0.61	0.549	0.882	1.02	3.93	1.09	1.03
V fixed	1.65	0.676	0.835	0.787	0.728	0.655	0.551	0.926	0.92
W fixed	0.636	0.619	0.977	1.1	0.7	1.74	1.19	1.66	1.68
Y fixed	0.9	0.702	0.963	0.88	1.05	0.949	0.844	1.27	1.24
pThr fixed	1.02	1.01	1.39	2.4	0.353	0.348	0.448	0.653	0.605
pTyr fixed	0.872	3.27	1.12	1.45	0.933	0.349	0.424	0.609	0.606

CDK10, construct: Full length (from UniProt Q15131)
relative phosphorylation
Details	at +1	at +2	at +3	at +4	at -1	at -2	at -3	at -4	at -5
A fixed	0.232	0.641	0.676	0.671	0.931	0.896	0.838	0.851	0.845
D fixed	0.124	0.342	0.305	0.505	0.378	0.311	0.302	0.355	0.357
E fixed	0.115	0.297	0.26	0.337	0.231	0.244	0.276	0.361	0.293
F fixed	0.303	0.554	0.721	0.643	0.669	0.667	0.635	0.782	1.02
G fixed	1.3	0.952	0.795	1.09	1.56	0.715	1.01	0.955	1.05
H fixed	0.235	1.22	1.23	1.37	0.915	0.821	1.11	1.13	1.08
I fixed	0.282	0.598	0.67	0.655	0.284	0.724	0.722	0.652	0.713
K fixed	0.397	3.05	1.66	2.1	2.08	1.64	1.66	2.23	2.24
L fixed	0.296	0.683	0.66	0.661	0.787	1.15	0.78	0.658	0.78
M fixed	0.32	0.572	0.618	0.638	1.01	1.06	0.776	0.831	0.757
N fixed	0.247	0.864	0.852	0.868	0.786	0.753	0.749	0.841	0.741
P fixed	11.8	0.782	1.13	1.02	1.58	2.09	0.88	1.08	0.97
Q fixed	0.294	0.967	0.874	1.24	0.859	0.958	0.874	0.973	0.911
R fixed	0.405	3.58	4.52	2.61	2.65	2.65	3.91	2.3	2.25
V fixed	0.245	0.515	0.716	0.691	0.408	0.731	0.625	0.628	0.605
W fixed	0.241	0.541	0.621	0.967	1.11	0.872	0.997	1.46	1.26
Y fixed	0.209	0.843	0.686	0.938	0.77	0.727	0.86	0.918	1.12
pThr fixed	0.506	0.924	0.88	0.879	0.602	0.737	0.853	0.941	0.789
pTyr fixed	0.461	0.367	0.508	0.431	0.375	0.388	0.538	0.559	0.537

CDKL1, construct: aa2-304 (from UniProt Q00532)
relative phosphorylation
Details	at +1	at +2	at +3	at +4	at -1	at -2	at -3	at -4	at -5
A fixed	1.42	0.825	0.9	0.849	0.875	0.874	0.724	0.985	0.964
D fixed	0.679	0.924	0.793	0.858	0.693	0.715	0.534	0.874	0.771
E fixed	0.721	0.803	0.747	0.766	0.67	0.739	0.538	0.917	0.809
F fixed	0.888	0.829	0.924	0.916	0.835	0.724	0.531	0.934	1.21
G fixed	1.15	0.764	0.865	1.04	1.56	1.01	0.617	1.01	1
H fixed	1.02	1.22	1.13	1.07	1.02	0.727	0.593	0.926	0.987
I fixed	0.732	0.881	0.865	0.856	0.644	0.96	0.537	0.883	0.961
K fixed	1.25	1.52	1.43	1.31	1.61	0.898	0.852	1.22	1.08
L fixed	0.755	0.898	0.928	0.939	0.988	0.909	0.549	0.909	0.976
M fixed	0.862	0.841	0.9	0.953	1.19	0.774	0.549	0.937	0.96
N fixed	0.871	1.05	1	1.08	1.01	0.778	0.585	0.925	0.919
P fixed	1.92	0.774	0.978	0.98	1.02	3.55	0.704	1.05	0.918
Q fixed	0.894	1.03	1.05	1.07	1.05	0.856	0.707	1.08	0.972
R fixed	1.33	2.02	1.63	1.47	1.44	1.21	7.35	1.54	1.63
V fixed	0.744	0.888	0.944	0.83	0.736	0.873	0.54	0.967	0.896
W fixed	0.819	0.808	0.899	1.09	0.768	0.71	0.539	0.944	0.889
Y fixed	0.941	0.931	1.02	0.907	0.884	0.698	0.55	0.899	1.06
pThr fixed	0.811	0.892	0.844	0.824	0.778	0.799	0.576	0.837	0.737
pTyr fixed	0.652	0.663	0.733	0.692	0.717	0.75	0.786	0.876	0.726
